Experimental data as given in US20140294898A1 (published 2014).
Positions of bridges follow the written chain, without caps; N, C: chain ends. Non-standard residues stand in square brackets, D forms with d. NMeNle = CCCC[C@H](NC)C(=O)O; NMeA = CN[C@@H](C)C(=O)O

B1: Compound No. 2 (peptide)
peptide: {CH2CO}-F[NMeA]NPHHSWRW[NMeNle][NMeNle]LCG-NH2
modifications: thioether N-14
SMILES: CCCC[C@H]1C(=O)N(C)[C@@H](CCCC)C(=O)N[C@@H](CC(C)C)C(=O)N[C@H](C(=O)NCC(N)=O)CSCC(=O)N[C@@H](Cc2ccccc2)C(=O)N(C)[C@@H](C)C(=O)N[C@@H](CC(N)=O)C(=O)N2CCC[C@H]2C(=O)N[C@@H](Cc2c[nH]cn2)C(=O)N[C@@H](Cc2c[nH]cn2)C(=O)N[C@@H](CO)C(=O)N[C@@H](Cc2c[nH]c3ccccc23)C(=O)N[C@@H](CCCNC(=N)N)C(=O)N[C@@H](Cc2c[nH]c3ccccc23)C(=O)N1C
B2: Compound No. 71 (peptide)
peptide: FFXGDVFYGWYLCG
HELM: PEPTIDE1{[O=C(C[*:3])[*:2]].F.[meF].[CCCC[C@@H](C(=O)[*:2])N(C)[*:1]].[Sar].D.V.[meF].Y.[Sar].W.Y.L.C.G.[am]}$PEPTIDE1,PEPTIDE1,1:R3-14:R3$$$V2.0
SMILES: CCCC[C@H]1C(=O)N(C)CC(=O)N[C@@H](CC(=O)O)C(=O)N[C@@H](C(C)C)C(=O)N(C)[C@@H](Cc2ccccc2)C(=O)N[C@@H](Cc2ccc(O)cc2)C(=O)N(C)CC(=O)N[C@@H](Cc2c[nH]c3ccccc23)C(=O)N[C@@H](Cc2ccc(O)cc2)C(=O)N[C@@H](CC(C)C)C(=O)N[C@H](C(=O)NCC(N)=O)CSCC(=O)N[C@@H](Cc2ccccc2)C(=O)N(C)[C@@H](Cc2ccccc2)C(=O)N1C

Target: T1, hPDL1(19-239)-TVMV-His (recombinant human PD-L1-TVMV-His) (UniProt Q9NZQ7 19-239)
T1 sequence (Q9NZQ7 other isoform, or with tags, fused parts or gaps): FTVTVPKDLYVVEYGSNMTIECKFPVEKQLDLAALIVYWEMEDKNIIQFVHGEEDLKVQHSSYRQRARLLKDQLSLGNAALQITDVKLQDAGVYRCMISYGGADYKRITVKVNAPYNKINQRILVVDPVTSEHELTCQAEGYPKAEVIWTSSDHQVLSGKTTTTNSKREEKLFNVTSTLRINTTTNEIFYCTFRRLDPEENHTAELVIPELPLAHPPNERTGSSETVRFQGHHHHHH
Assay: HTRF competition with biotinylated Compound No. 71

| Binder | IC50 |
| --- | --- |
| B1 | 584 nM |
| {CH2CO}-FLIVIRDRVFRCG-NH2 (thioether N-12) [Compound No. 99] | 4310 nM |
| B2 | 83 nM |

Target: T1, hPDL1(19-239)-TVMV-His (recombinant …)
Assay: HTRF PD-1/PD-L1 binding inhibition

| Binder | IC50 |
| --- | --- |
| B1 | 14 nM |
| {CH2CO}-FLIVIRDRVFRCG-NH2 (thioether N-12) [Compound No. 99] | 90 nM |
| B2 | 1 nM |

Target: human PD-L1 on cells (human, UniProt Q9NZQ7 19-290)
Sequence (Q9NZQ7 19-290): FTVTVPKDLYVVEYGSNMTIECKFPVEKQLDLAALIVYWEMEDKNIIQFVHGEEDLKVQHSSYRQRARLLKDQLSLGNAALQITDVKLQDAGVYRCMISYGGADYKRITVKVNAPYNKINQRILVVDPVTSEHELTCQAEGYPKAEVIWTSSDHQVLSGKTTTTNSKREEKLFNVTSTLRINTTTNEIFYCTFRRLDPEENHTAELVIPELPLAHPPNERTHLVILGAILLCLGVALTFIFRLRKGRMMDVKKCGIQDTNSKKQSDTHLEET
Assay: cell binding assay, blocking of PD-1-Ig (PE) to LK35.2-hPD-L1 cells

| Binder | IC50 |
| --- | --- |
| B1 | 40 nM |
| {CH2CO}-FLIVIRDRVFRCG-NH2 (thioether N-12) [Compound No. 99] | 133 nM |
| B2 | 1 nM |
